# Laboratory results from patent publication US6492344B1, “Syndecan enhancer element and syndecan stimulation of cellular differentiation” (Biotie Therapies Corp., priority 1993, dated 2002).
# Entries after “also recorded” stand apart in the source; their conditions may differ.
# B1: FGF-7: Keratinocyte growth factor (FGF-7 or KGF) (protein, UniProt P21781 32-194, looked up)
# Fibroblast growth factor 7: CNDMTPEQMATNVNCSSPERHTRSYDYMEGGDIRVRRLFCRTQWYLRIDKRGKVKGTQEMKNNYNIMEIRTVAVGIVAIKGVESEFYLAMNKEGKLYAKKECNEDCNFKELILENHYNTYASAKWTHNGGEMFVALNQKGIPVRGKKTKKEQKTAHFLPMAIT
# B2: FGF-4: growth factor, FGF family member (protein, UniProt P08620 31-206, looked up)
# Fibroblast growth factor 4: APTAPNGTLEAELERRWESLVALSLARLPVAAQPKEAAVQSGAGDYLLGIKRLRRLYCNVGIGFHLQALPDGRIGGAHADTRDSLLELSPVERGVVSIFGVASRFFVAMSSKGKLYGSPFFTDECTFKEILLPNNYNAYESYKYPGMFIALSKNGKTKKGNRVSPTMKVTHFLPRL
# Columns and labels:
# 3T3NIH cells = assay: 125-IdU incorporation (DNA synthesis) assay in 3T3NIH cells; format: cell-based, mouse; conditions: pFiRE transfected 3T3NIH cells; 10 ng/ml growth factor (2 ng/ml TGF-β) or 5% FCS
# From the text: Effect of Various Growth Factors on Enhancer Activation in NIH3T3 Cells. Plasmid pFiRE was transfected into 3T3NIH cells as described, supra. The cells were starved in DMEM medium supplemented with 5% fetal calf serum to about 70% confluence. Fetal calf serum was then replaced with 2% carboxy-methyl-Sephadex eluted fetal calf serum (CMS) 12 hrs before adding the growth factors. Various growth factors in the same medium, 5% fetal calf serum (FCS) supplemented medium or a control containing the medium, without any added growth factors were incubated with the transfected cells for 2 days, and CAT activity was measured. The effect of 10 ng/ml of FGF-2, FGF-1, FGF-4, FGF-7 (KGF), EGF, IGF1, TGFα, IFNγ, and PDGF and 2 ng/ml TGF-β were tested. The human recombinant growth factors were purchased from Peprotech (FGF-1, -2, and -7), Boehringer (FGF-2) or from Calbiochem (PDGF) TGF-β was purchased from Sigma. The effect of the added growth factors and FCS on DNA synthesis was also tested by a 125-IdU incorporation assay. This cell proliferation assay was carried out by incubating cells for 4-6 hrs with 0.25 μCi/ml 5-[^125I]iodo-2′-deoxyuridine (IdU, Amersham), washed several times with PBS and solubilized in 1 M NaOH. Radioactivity was measured using a gamma counter (Wallac).
# [1] = tested on: FGF-inducible Response Element (FiRE); assay: pFiRE CAT reporter activation by growth factors in 3T3NIH cells; format: cell-based, mouse; conditions: pFiRE transfected 3T3NIH cells; 10 ng/ml growth factor (2 ng/ml TGF-β) or 5% FCS, 2 days
# Protocol: Each of these plasmids was transiently transfected into 3T3NIH cells, using the calcium phosphate precipitation method (Chen and Okayama, Mol. Cell Biol. 7:2745-2752 (1987)) as follows. For transient transfections NIH3T3 cells were plated at equal density on six-well plates (Falcon) two days before transfection. Plasmid DNA was transfected into cells by calcium phosphate method (Chen and Okayama, Mol. Cell Biol. 7:2745-2752 (1987)). A β-galactosidase expressing plasmid (pSV-β-galactosidase, Promega) was co-transfected with CAT constructs to monitor transfection efficiencies. Three parallel transfections were used in every assay. […] CAT activities were measured by liquid scintillation and β-galactosidase activities spectrophotometrically at 420 nm as described by Vihinen et al., J. Biol. Chem 268:17261-17269 (1993)). […]
# For the gene expression analysis the fragments of the syndecan-1 upstream region were subcloned from mouse genomic clones into the XbaI site of the pCATProm vector in which a mouse syndecan-1 promoter region (−1310 to +140) was fused to the CAT reporter gene (Vihinen et al., J. Biol. Chem. 271:12532-12541 (1996)). […] These constructs were then used to transient transfect NIH3T3 cells as described supra, and CAT activity was measured.
# Effect of Various Growth Factors on Enhancer Activation in NIH3T3 Cells. […] Radioactivity was measured using a gamma counter (Wallac).
# syndecan-1 mRNA = assay: Syndecan-1 mRNA expression in MCA3D keratinocytes; format: cell-based; conditions: MCA3D mouse keratinocytes
# [2] = tested on: FGF-inducible Response Element (FiRE); assay: FiRE / Syn Prom CAT reporter in MCA3D keratinocytes; format: cell-based; conditions: MCA3D mouse keratinocytes transfected with FiRE construct
# Protocol: The cells used for proximal promoter constructs were 3T3 NIH, S115 (either hormone-treated or not) and nMuMG cells. For enhancer constructs we used 3T3 NIH cells grown in 2% CMS medium and MCA 3D cells grown in Ham's medium. 3T3 NIH cells were also used to test the effect of growth factors in 2% CMS medium with 10 ng/ml FGF-2 and 2ng/ml TGFβ-1. MCA 3D cells were used to test the effect of 10 ng/ml KGF.
# FiRE is Induced Selectively by FGF-7 in Keratinocytes. The ability of FiRE to enhance transcription was tested in the mouse keratinocyte cell line MCA3D (Kuliz-Martin et al., Carcinogenesis 4:1367-1377 (1983)). MCA3D cells were transfected as described supra for mouse NIH3T3 cells. Following transfection, the cells were treated with fetal calf serum, PDGF, FGF-1, FGF-2, and FGF-7 as described supra for the NIH3T3 cells.
Molecule,DNA synthesis / cell proliferation (125-IdU incorporation) (3T3NIH cells),FiRE enhancer activation (CAT reporter activity) [1],syndecan-1 mRNA expression (syndecan-1 mRNA),FiRE activation [2]
B1,significant increase in DNA synthesis,did not activate the enhancer; also recorded: no significant enhancer activation; also recorded: no effect,strongly induced,strongly activated FiRE
B2,–,lower effect,–,–
